From US20250171806A1 (BROAD INSTITUTE, published 2025)

Columns and labels:
Assay in all cases: co-immunoprecipitation from HEK293 lysate: Flag IP of NS3, HA Western blot
[1] = molecular target: T1, HA-tagged Galleria mellonella (Gm) densovirus capsid protein VP1 (Galleria mellonella (Gm) densovirus, UniProt Q90125 1-811)
T1 construct: also called Gm VP1; GmDNV capsid VP protein 1
T1 sequence: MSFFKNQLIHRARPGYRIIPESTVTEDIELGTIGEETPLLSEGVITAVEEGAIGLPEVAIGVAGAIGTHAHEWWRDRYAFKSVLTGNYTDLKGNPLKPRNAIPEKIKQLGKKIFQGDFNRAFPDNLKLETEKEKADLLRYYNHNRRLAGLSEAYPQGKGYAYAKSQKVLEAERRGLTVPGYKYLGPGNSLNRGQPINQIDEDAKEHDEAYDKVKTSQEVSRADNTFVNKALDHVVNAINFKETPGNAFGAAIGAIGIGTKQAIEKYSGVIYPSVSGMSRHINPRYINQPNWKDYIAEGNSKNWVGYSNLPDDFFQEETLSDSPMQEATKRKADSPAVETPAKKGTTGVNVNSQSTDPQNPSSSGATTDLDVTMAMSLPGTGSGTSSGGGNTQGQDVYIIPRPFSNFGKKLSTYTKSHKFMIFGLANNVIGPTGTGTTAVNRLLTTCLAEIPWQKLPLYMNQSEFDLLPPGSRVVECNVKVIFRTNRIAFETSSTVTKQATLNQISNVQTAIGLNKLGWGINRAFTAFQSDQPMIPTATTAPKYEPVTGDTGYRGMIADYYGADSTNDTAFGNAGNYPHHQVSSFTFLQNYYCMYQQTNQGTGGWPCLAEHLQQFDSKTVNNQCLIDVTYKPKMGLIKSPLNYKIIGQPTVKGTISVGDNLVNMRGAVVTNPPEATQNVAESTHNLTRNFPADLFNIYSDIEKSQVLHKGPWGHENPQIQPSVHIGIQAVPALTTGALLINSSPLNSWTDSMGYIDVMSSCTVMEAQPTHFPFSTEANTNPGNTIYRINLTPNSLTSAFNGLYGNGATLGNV

[2] = molecular target: T2, HA-tagged Galleria mellonella (Gm) densovirus capsid protein VP2 (Galleria mellonella (Gm) densovirus, UniProt Q90125 277-811)
T2 construct: also called Gm VP2; GmDNV capsid VP protein 2
T2 sequence: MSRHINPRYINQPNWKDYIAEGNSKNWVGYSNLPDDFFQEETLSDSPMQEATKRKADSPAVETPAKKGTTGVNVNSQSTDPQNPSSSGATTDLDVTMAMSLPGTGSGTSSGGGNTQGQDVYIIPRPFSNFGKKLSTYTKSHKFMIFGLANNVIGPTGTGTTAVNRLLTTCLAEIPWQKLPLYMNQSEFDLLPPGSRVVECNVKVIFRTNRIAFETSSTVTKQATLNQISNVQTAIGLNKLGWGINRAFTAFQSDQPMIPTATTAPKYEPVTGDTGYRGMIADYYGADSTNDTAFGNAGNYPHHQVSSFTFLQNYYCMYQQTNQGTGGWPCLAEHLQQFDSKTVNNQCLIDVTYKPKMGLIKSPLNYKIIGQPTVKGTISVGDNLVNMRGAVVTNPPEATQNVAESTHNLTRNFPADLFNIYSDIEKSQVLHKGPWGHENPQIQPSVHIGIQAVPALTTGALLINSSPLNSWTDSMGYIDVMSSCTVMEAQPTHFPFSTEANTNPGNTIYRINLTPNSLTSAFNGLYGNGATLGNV

[3] = molecular target: T3, HA-tagged Galleria mellonella (Gm) densovirus capsid protein VP3 (Galleria mellonella (Gm) densovirus, UniProt Q90125 324-811)
T3 construct: also called Gm VP3; GmDNV capsid VP protein 3
T3 sequence: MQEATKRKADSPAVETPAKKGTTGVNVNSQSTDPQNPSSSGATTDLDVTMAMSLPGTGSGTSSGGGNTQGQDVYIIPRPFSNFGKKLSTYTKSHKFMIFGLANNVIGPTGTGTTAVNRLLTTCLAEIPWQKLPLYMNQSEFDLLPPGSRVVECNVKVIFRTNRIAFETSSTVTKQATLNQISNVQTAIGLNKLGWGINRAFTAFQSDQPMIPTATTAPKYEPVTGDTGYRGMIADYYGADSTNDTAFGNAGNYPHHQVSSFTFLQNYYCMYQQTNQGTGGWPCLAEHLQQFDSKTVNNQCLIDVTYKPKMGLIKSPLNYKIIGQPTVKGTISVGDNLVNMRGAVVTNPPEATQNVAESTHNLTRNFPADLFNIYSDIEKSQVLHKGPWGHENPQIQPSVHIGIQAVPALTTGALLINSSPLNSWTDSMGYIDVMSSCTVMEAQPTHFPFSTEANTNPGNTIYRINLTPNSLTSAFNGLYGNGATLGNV

[4] = molecular target: T4, HA-tagged Galleria mellonella (Gm) densovirus capsid protein VP4 (Galleria mellonella (Gm) densovirus, UniProt Q90125 375-811)
T4 construct: also called Gm VP4; GmDNV capsid VP protein 4
T4 sequence: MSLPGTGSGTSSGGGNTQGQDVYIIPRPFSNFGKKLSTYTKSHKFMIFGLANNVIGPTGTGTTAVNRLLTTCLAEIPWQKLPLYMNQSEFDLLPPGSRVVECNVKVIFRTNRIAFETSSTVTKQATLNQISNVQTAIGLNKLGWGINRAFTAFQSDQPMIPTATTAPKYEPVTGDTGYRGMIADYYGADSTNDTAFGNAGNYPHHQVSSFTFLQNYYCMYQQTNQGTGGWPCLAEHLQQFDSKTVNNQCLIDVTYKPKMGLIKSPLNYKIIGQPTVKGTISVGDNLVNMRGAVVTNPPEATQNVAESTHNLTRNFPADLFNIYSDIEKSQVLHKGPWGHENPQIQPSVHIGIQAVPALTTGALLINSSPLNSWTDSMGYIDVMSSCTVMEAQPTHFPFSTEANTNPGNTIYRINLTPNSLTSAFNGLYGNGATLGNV

Measured: binding result

B1: Flag-tagged Galleria mellonella (Gm) densovirus nonstructural protein NS3 (other)
chain: MSIAKFLYVRRLFEKVYNPKSLFYEAYKCARLNGLDMSILPKPILNMSHDMDTQIIACGEDINHTLAIEELEHWDWSKQNRLPFQLYLAVMNLTEIPEWLDETMLIECVYYFKELINHRDPYDTDELNTWNANGKPFKTMWKICKFCYNNCEDPDDYRFIYNRTVFVEDVEEIITRLQDSDSWCQLCHTCPLFNISAIYDNSPNNKQRRYSSSDDDDYMSNSFFVKHPNSRH
notes: also called Gm NS3; GmNS3; not shown: Flag tag, at either the N or the C terminus
binds: all assays above

B2: Gm NS3 with C-terminal Flag tag (other)
chain: MSIAKFLYVRRLFEKVYNPKSLFYEAYKCARLNGLDMSILPKPILNMSHDMDTQIIACGEDINHTLAIEELEHWDWSKQNRLPFQLYLAVMNLTEIPEWLDETMLIECVYYFKELINHRDPYDTDELNTWNANGKPFKTMWKICKFCYNNCEDPDDYRFIYNRTVFVEDVEEIITRLQDSDSWCQLCHTCPLFNISAIYDNSPNNKQRRYSSSDDDDYMSNSFFVKHPNSRH
notes: also called NS3 when the Flag tag was present on the C-terminus; not shown: C-terminal Flag tag
binds: all assays above
